# Measured values as given in publication PMC6469041 (BMC Microbiology, 2019).
# T1: PhnCDE (strain RS07, phn+3Δ) (Escherichia coli, UniProt A0A140NFA3+P16682)
# T1 construct: gene phnD; native chromosomal ABC transporter in intact cells of RS07 (MG1655 ΔpitA ΔugpBAEC ΔpstSCAB-phoU phnE+); phnE is the functional BL21 allele without the 8 bp insertion of K-12; phnC and phnD may be of K-12 or co-transduced from BL21
# T1 sequence (P16682 27-338): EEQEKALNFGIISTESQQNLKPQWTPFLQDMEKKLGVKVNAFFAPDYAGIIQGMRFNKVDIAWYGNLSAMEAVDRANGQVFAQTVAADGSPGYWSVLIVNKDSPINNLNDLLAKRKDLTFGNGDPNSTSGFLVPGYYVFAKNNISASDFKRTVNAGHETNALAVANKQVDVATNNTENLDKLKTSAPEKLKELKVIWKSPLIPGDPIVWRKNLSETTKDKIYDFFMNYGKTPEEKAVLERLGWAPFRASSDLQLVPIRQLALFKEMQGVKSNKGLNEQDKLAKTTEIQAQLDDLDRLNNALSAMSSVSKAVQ
# T1 sequence (A0A140NFA3 1-259): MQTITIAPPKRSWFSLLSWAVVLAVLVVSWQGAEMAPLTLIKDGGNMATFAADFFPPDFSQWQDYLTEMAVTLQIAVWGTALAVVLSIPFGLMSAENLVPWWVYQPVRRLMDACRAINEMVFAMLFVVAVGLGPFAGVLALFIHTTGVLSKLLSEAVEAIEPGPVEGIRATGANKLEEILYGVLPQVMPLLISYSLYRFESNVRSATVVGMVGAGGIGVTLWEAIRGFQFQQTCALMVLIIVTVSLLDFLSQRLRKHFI
# T1 sequence (P16677 1-262 partner): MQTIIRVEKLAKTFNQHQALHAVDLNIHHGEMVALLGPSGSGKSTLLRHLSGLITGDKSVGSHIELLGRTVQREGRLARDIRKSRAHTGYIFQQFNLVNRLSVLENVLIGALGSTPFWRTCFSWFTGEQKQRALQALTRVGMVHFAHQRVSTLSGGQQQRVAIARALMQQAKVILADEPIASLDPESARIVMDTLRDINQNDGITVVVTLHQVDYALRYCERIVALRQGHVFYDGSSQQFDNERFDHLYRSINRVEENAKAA
# Tests used:
# [1] = target: T1, PhnCDE (strain RS07, phn+3Δ); experiment: competition of […] uptake by intact cells; assay type: cell-based; settings: 10 µM 32Pi, 4 mM AePn added 50 s later; strain used for this test not named
# [2] = substrate: O=P(O)(O)O; experiment: cells, lysate or membranes
molecule,measurement,setting,value
"NCCP(=O)(O)O [AePn, aminoethylphosphonate]",inhibition of Pi uptake at 4 mM,[1],addition of AePn strongly inhibited Pi uptake when compared to the control
"PitA (strain RS04, pitA+3Δ) (Escherichia coli K-12) (protein) MLHLFAGLDLHTGLLLLLALAFVLFYEAINGFHDTANAVATVIYTRAMRSQLAVVMAAVFNFLGVLLGGLSVAYAIVHMLPTDLLLNMGSSHGLAMVFSMLLAAIIWNLGTWYFGLPASSSHTLIGAIIGIGLTNALMTGTSVVDALNIPKVLSIFGSLIVSPIVGLVFAGGLIFLLRRYWSGTKKRARIHLTPAEREKKDGKKKPPFWTRIALILSAIGVAFSHGANDGQKGIGLVMLVLIGVAPAGFVVNMNATGYEITRTRDAINNVEAYFEQHPALLKQATGADQLVPAPEAGATQPAEFHCHPSNTINALNRLKGMLTTDVESYDKLSLDQRSQMRRIMLCVSDTIDKVVKMPGVSADDQRLLKKLKSDMLSTIEYAPVWIIMAVALALGIGTMIGWRRVATTIGEKIGKKGMTYAQGMSAQMTAAVSIGLASYTGMPVSTTHVLSSSVAGTMVVDGGGLQRKTVTSILMAWVFTLPAAVLLSGGLYWLSLQFL",Km,"[2]; 15-50 µM KH2PO4, TG medium (Tris T-salts, glucose) pH 7.5, labelled compound",25.99 µM
"PhnCDE (strain RS07, phn+3Δ) (Escherichia coli BL21(DE3)) (protein) chain 1: EEQEKALNFGIISTESQQNLKPQWTPFLQDMEKKLGVKVNAFFAPDYAGIIQGMRFNKVDIAWYGNLSAMEAVDRANGQVFAQTVAADGSPGYWSVLIVNKDSPINNLNDLLAKRKDLTFGNGDPNSTSGFLVPGYYVFAKNNISASDFKRTVNAGHETNALAVANKQVDVATNNTENLDKLKTSAPEKLKELKVIWKSPLIPGDPIVWRKNLSETTKDKIYDFFMNYGKTPEEKAVLERLGWAPFRASSDLQLVPIRQLALFKEMQGVKSNKGLNEQDKLAKTTEIQAQLDDLDRLNNALSAMSSVSKAVQ chain 2: MQTITIAPPKRSWFSLLSWAVVLAVLVVSWQGAEMAPLTLIKDGGNMATFAADFFPPDFSQWQDYLTEMAVTLQIAVWGTALAVVLSIPFGLMSAENLVPWWVYQPVRRLMDACRAINEMVFAMLFVVAVGLGPFAGVLALFIHTTGVLSKLLSEAVEAIEPGPVEGIRATGANKLEEILYGVLPQVMPLLISYSLYRFESNVRSATVVGMVGAGGIGVTLWEAIRGFQFQQTCALMVLIIVTVSLLDFLSQRLRKHFI",Km,"[2]; 5-20 µM KH2PO4, TG medium (Tris T-salts, glucose) pH 7.5, labelled compound",19.46 µM
